Measured values published in patent US7732133B2, “Screening methods for biologically active ligands” (Chugai Seiyaku Kabushiki Kaisha, priority 2000, dated 2010).

Assays:
[1] = biological target: T1, chimeric TPO receptor (human TPO receptor extracellular domain / mouse G-CSF receptor) in Ba/F3 cell line TPG (Homo sapiens, UniProt P40238); test: Growth response of chimeric TPO receptor-expressing Ba/F3 cell line TPG (WST-8); assay type: cell-based; conditions: 72 hours culture, WST-8 absorbance
T1 construct: from the 1st to the 491st amino acid residues; expressed in transfected cells; host or cells: mouse Ba/F3 cells, clone TPG#219 = TPG
T1 sequence (P40238 26-491): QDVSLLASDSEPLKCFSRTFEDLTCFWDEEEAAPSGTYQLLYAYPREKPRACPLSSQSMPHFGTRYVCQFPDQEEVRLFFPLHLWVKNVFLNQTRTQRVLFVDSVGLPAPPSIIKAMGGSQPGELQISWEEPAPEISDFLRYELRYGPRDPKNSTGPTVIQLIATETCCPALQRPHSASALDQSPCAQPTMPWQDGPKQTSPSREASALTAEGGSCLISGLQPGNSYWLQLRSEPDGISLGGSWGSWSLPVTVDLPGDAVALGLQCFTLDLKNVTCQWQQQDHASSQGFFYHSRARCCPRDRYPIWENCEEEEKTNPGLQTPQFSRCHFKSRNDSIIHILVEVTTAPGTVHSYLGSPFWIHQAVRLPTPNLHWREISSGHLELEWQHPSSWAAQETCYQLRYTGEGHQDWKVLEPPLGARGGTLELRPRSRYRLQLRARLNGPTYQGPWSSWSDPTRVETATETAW
Description: A chimeric receptor cDNA was constructed by linking cDNA fragments encoding the extracellular domain (from the 1st to the 491st amino acid residues; Vigon, I. et al. (1992) Proc. Natl. Acad. Sci. USA 89, 5640-5644) of human TPO receptor, and the transmembrane and intracellular domains (from the 602nd to the 813th amino acid residues; Fukunaga, R. et al. (1990) Cell 61, 341-350) of mouse G-CSF receptor. The cDNA was inserted downstream of the EF1α promoter of the mammalian expression vector pCOS-G to construct chimeric receptor-expression vector TG/pCOS-G. TG/pCOS-G was linearized with Pvu I (Takara Shuzo), extracted with phenol and chloroform, and purified by ethanol precipitation.
The linearized expression gene vector was introduced into mouse Ba/F3 cells (purchased from RIKEN; Cell No.: RCB0805) using an electroporation apparatus (Gene Pulser: Bio Rad) The Ba/F3 cells were washed twice with Dulbecco's PBS (hereinafter referred to as PBS), and then were suspended in PBS to give a cell density of about 1×10^7 cells/mL. […]
The cells were washed twice with Media A, and were suspended in Media A to give a cell density of 5×10^4 cells/mL. […] The absorbance at a measurement wavelength of 450 nm and a control wavelength of 655 nm after the 2 hours incubation was measured using microplate reader (Model 3550, Bio Rad).

[2] = system: mixed culture of cell lines GFG, EPG, TPG and parental Ba/F3; test: Cytokine responses in mixed and individual cell cultures (Example 2); assay type: cell-based, mouse; conditions: mixed culture of four cell lines (each 4×10^3 cells/well), similar in individual cultures, 72 hours, WST-8; listed as hTPO
Description: Mixed culture of the cell lines GFG, EPG, and TPG, which express human G-CSF, EPO, and TPO chimeric receptors, respectively, and their parental cell line Ba/F3 was conducted and their response to various cytokines was examined.
The cells were washed twice with RPMI1640 media containing 2% fetal bovine serum, and then were suspended in RPMI1640 containing 10% fetal bovine serum. The four cell lines were mixed by adjusting each of the cell lines to 4×10^4 cells/mL (16×10^4 cells/mL in total) for the mixed culture, and, for individual cultures, cells were prepared at 4×10^4 cells/mL. 100 μL each of the cells were independently seeded on a 96-well microtiter plate (flat bottom, Falcon). After adding 100 μL/well each of appropriately diluted cytokines, the cultures were cultured for 72 hours in a CO2 incubator (5% CO2 concentration). After the culture, 10 μL/well WST-8 reagent (Cell Count Reagent SF; Nacalai Tesque) was added, and pre-reaction absorbance at a measurement wavelength of 450 nm and a control wavelength of 655 nm was measured using a microplate reader (Model 3550, Bio Rad). The plate was incubated for two hours in a CO2 incubator (CO2 concentration, 5%), and post-reaction absorbance was measured as above. Data were graphed out taking the cytokine concentrations on the horizontal axis and the amount of changes in absorbance after 2-hour incubation on the vertical axis (FIGS. 18, 19, and 20).

[3] = biological target: T2, chimeric IL-10 receptor (human IL-10Rα and IL-10Rβ / mouse G-CSF receptor) in Ba/F3 cell line 10G (Homo sapiens, UniProt Q08334+Q13651); test: Growth response of chimeric IL-10 receptor-expressing Ba/F3 cell line 10G (WST-8); assay type: cell-based; conditions: 72 hours culture, WST-8 absorbance
T2 construct: from the 1st to the 235th amino acid residue; from the 1st to the 220th amino acid residues; expressed in transfected cells; host or cells: mouse Ba/F3 cells co-transfected with pCV-cIL10Rα and pCV-cIL10Rβ, clone 10G#10 = 10G
T2 sequence (Q13651 22-235): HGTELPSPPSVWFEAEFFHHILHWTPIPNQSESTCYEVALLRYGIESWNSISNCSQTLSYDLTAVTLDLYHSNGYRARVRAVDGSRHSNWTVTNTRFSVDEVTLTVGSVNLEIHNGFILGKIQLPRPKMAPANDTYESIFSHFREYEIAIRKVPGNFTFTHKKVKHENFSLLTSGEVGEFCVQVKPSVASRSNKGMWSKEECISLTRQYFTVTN
T2 sequence (Q08334 20-220): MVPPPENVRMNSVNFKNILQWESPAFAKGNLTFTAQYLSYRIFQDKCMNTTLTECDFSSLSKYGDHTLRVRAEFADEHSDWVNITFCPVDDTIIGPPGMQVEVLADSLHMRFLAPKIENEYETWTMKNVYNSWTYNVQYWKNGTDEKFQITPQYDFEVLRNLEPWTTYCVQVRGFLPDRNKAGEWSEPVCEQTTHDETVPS
T2 sequence (P40223 627-837 partner limits assumed): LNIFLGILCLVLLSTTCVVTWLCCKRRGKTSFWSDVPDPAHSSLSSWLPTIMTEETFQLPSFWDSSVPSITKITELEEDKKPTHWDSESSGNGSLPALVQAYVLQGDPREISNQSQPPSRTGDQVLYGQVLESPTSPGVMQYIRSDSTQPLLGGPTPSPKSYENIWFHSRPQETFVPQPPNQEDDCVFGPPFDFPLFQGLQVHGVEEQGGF
Description: Chimeric receptor cDNAs were constructed by linking cDNA fragments encoding the α chain (IL-10Rα) (from the 1st to the 235th amino acid residue; Liu, Y. et al. (1994) J. Immunol. 152, 1821-1829) and the hIL-10R subunit (CRFB4; IL-10Rβ) extracellular domain (from the 1st to the 220th amino acid residues; Lutfalla, G. et al. (1993) Genomics 16, 366-373) of human IL-10 receptor with the transmembrane and intracellular domains (from the 602nd to the 813th amino acid residues; Fukunaga, R. et al. (1990) Cell 61, 341-350) of mouse G-CSF receptor, respectively. […]
The cells were washed twice with Media A, and were suspended in Media A to give a cell density of 5×10^4 cells/mL. […] After the culture, 10 μL/well WST-8 reagent (Cell Count Reagent SF; Nacalai Tesque) was added, and pre-reaction absorbance at a measurement wavelength of 450 nm and a control wavelength of 655 nm was measured using microplate reader (Model 3550, Bio Rad). The plate was incubated for two hours in a CO2 incubator (CO2 concentration, 5%), and post-reaction absorbance was measured as above. […]

Substance | concentration at which an evident growth reaction was observed [1] | concentration where the response was observed to start [2] | concentration at which an evident growth reaction was observed [3]
thrombopoietin [human TPO] | ≥ 100 pg/mL | 200 pg/mL | 
human IL-10: human interleukin 10 (Genzyme) |  |  | ≥ 0.5 ng/mL
